The text below walks through data of US11066455B2, “Tmem100 peptides and variants thereof and their use in treating or preventing diseases or conditions” (The Johns Hopkins University, priority 2014, dated 2021).

Type in all cases: cell-based
Test [1] deals with TRPA1. Put plainly: Cell-attached single-channel recording in CHO cells, MO-induced activity (NPo). Conditions: Vh=-60 mV; co-expressed with TRPA1 only (1:4) in CHO cells. As for the experimental part: (§1) Recordings were made in cell-attached single-channel or whole-cell voltage clamp configurations at 22-24° C. from the somata of small-to-medium mouse DRG neurons (15-35 pF) or CHO cells. For whole-cell configuration, holding potential (Vh) is −60 mV. Data were acquired and analyzed using an Axopatch 200B amplifier and pCLAMP9.0 software (Molecular Devices, Sunnyvale, Calif.). Borosilicate pipettes (Sutter, Novato, Calif.) were pulled and polished to resistances of 3-5 MΩ (in whole-cell and single-channel pipette solutions). Access resistance (Rs) was compensated (40-80%) when appropriate up to the value 7-10 MΩ for whole-cell configuration. Whole-cell recording data were filtered at 0.5 kHz and sampled at 2 kHz. Single-channels currents were filtered with an 8-pole, low pass Bessel filter at 0.1 kHz and sampled at 0.5 kHz, since dwelling time (τ) of the TRPA1 and TRPV1 single-currents were >0.5 sec. Whole-cell recorded data were rejected when Rs changed >20% during recording, leak currents were >100 pA, or input resistance was <200 MΩ.
(§2) Single-channel unitary current (i) was determined from the best-fit Gaussian distribution of amplitude histograms. Single-channel activity was analyzed as NPo=I/i, where I is the mean total current in a patch and i is unitary current at this voltage. For single channel slope conductances, linear fitting was used separately for positive and negative holding potentials. The slope conductances presented in figures were determined from fitting negative hold potentials (from −60 to 0 mV). The single-channel recording data were analyzed with Clampfit 9 software. This has an “event detection analysis” function that analyzes current traces and determines the number of channels in the patch (N), how many sub-conductances are present, and what the main conductance is. In order to increase the accuracy of the Po measurement, only patches containing fewer than 3 channels were used. For patches containing both TRPA1 and TRPV1, only those with equal numbers of TRPA1 and TRPV1 were used. This was monitored in each recording by applying MO and then CAP.
(§3) Standard external solution (SES) for whole-cell patch recording contained (in mM): 140 NaCl, 5 KCl, 2 CaCl2, 1 MgCl2, 10 D-glucose and 10 HEPES, pH 7.4. Vehicle, which is 0.01% DMSO, was added to external solutions. The bath solution for single-channel recording (SES-SCh) of TRP currents consisted of (in mM): 100 K-gluconate, 4 KCl, 1 MgCl2, 1 EGTA, 10 D-glucose and 10 Hepes (pH 7.3). The standard pipette solution (SIS) for the whole-cell configurations contained (in mM): 140 KCl, 1 MgCl2, 1 CaCl2, 10 EGTA, 10 D-glucose, 10 HEPES, pH 7.3. […] The baseline activities of the cells were recorded for 1-2 min prior drug applications. […]

Test [2] has as its system T1, TRPA1.
T1 construct: MO (10 μM)-evoked Ca2+ influx; other: TRPA1+TRPV1+Tmem100-3Q (1:1:4) CHO cells; MO (10 μM)-gated whole-cell current density; other: Vh=-60 mV; TRPA1+TRPV1+Tmem100-3Q (1:1:4) CHO cells; MO (10 μM)-induced single-channel activity (NPo); co-expressed with TRPA1+TRPV1 (1:1:4) in CHO cells
The test is described as above. Conditions: Vh=-60 mV; co-expressed with TRPA1+TRPV1 (1:1:4) in CHO cells. As for the experimental part:
as §1, §2, §3

The test system of test [3] is TRPV1. The experiment in a line: Cell-attached single-channel recording in CHO cells, CAP-induced activity (NPo). Conditions: Vh=-60 mV. As for the experimental part: as §1, §2, §3
Where [4] appears, read: co-expressed with TRPA1+TRPV1 (1:1:4) in CHO cells.
The mark [5] stands for this setting: co-expressed with TRPV1 only (1:4) in CHO cells.

B1: Tmem100-3Q mutant (full-length, mouse) (protein)
chain: MTEESTKENLGAPKSPTPVTMEKNPKREVVVTTGPLVSEVQLMAATGGAELSCYRCIIPFAVVVFITGIVVTAVAYSFNSHGSIISIFGLVLLSSGLFLLASSALCWKVRQRNKKVQQQESQTALVVNQRCLFA
Consider B1, for which the “MO (10 μM)-induced single-channel activity (NPo)” value came out at 1.05±0.14 in test [1] and 0.16±0.06 in test [2]. Besides, the “CAP (100 nM)-induced single-channel activity (NPo)” value in test [3] (setting [4]) was 1.08±0.17; in test [3] (setting [5]), 0.73±0.12.

B2: Tmem100: 134-amino acid two-transmembrane protein, regulator of TRPA1 (SEQ ID NO: 1/2), expressed in cells (protein, listed as Homo sapiens, listed as Mus musculus)
chain 1: MTEEPIKEILGAPKAHMAATMEKSPKSEVVITTVPLVSEIQLMAATGGTELSCYRCIIPFAVVVFIAGIVVTAVAYSFNSHGSIISIFGLVVLSSGLFLLASSALCWKVRQRSKKAKRRESQTALVANQRSLFA
chain 2: MTEESTKENLGAPKSPTPVTMEKNPKREVVVTTGPLVSEVQLMAATGGAELSCYRCIIPFAVVVFITGIVVTAVAYSFNSHGSIISIFGLVLLSSGLFLLASSALCWKVRQRNKKVKRRESQTALVVNQRCLFA
Take B2: the “MO (10 μM)-induced single-channel activity (NPo)” value in test [1] turned out to be 0.64±0.18; in test [2] it was 1.05±0.14. Moreover, the “CAP (100 nM)-induced single-channel activity (NPo)” value is on record as 0.82±0.14 in test [3] (setting [4]) and 0.45±0.1 in test [3] (setting [5]).
